In patent US20170305994A1:
Several values for one entry are separate records, joined by “and”; a condition that tells them apart may be missing. Identical values can stand only once. Like-named read-outs stand apart in the source and are kept apart here.

Key:
[1] = target: T1, human DR3 (full length, on cells) (human) (UniProt Q93038); experiment: cell-based or functional assay
T1 sequence: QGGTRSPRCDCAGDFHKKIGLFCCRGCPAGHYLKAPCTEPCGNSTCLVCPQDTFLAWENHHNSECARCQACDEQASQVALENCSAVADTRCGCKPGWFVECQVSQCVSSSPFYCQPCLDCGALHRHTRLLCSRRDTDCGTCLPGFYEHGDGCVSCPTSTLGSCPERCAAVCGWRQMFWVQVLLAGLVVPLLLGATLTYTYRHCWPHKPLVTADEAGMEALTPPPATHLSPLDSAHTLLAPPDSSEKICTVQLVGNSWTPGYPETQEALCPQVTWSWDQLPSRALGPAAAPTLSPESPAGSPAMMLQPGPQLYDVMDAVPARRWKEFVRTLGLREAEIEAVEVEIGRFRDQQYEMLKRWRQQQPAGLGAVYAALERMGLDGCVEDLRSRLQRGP

[2] = target: human DR3 with the death domain deleted (ΔM339-P417 of SEQ ID NO:1), expressed on CHOK1SV cells (human) (UniProt Q93038); experiment: flow cytometry competition: Fab vs TL1A on hDR3-expressing CHO cells (isotype control; IC50 cell: No inhib)
[3] = target: T1, human DR3 (full length, on cells) (human); experiment: flow cytometry on CD3/CD28-stimulated human CD4+ T cells (isotype control)
TL1A (R&D Systems) [4] = target: TL1A (R&D Systems) (UniProt O95150); experiment: cell-based or functional assay
Chain of TL1A (R&D Systems) (O95150 72-251 limits assumed): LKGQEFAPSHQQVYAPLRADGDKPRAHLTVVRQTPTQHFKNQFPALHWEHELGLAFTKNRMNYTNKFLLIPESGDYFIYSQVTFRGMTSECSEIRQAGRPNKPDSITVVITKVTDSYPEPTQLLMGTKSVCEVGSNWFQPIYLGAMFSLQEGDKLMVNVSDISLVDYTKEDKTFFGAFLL

TL1A (R&D Systems) [5] = target: TL1A (R&D Systems) (UniProt O95150); experiment: cell-based or functional assay; remark: listed apart in the source

0158 (Hz-aTNP isotype control Fab) was tested, and the max % inhibition of TNFalpha, average (n 8) [1] was -1.8%, the max % inhibition of TNFalpha, donor 1 [1] was 1.24% and the max % inhibition of TNFalpha, donor 2 [1] was 0.75%. The max percentage inhibition [2] was 10%.

With IgG1 isotype (antibody) the Median Fluorescent Intensity [3] was 222 and the Staining index (MFI Ab/MFI Isotype) [3] was 1.

For “MAB7441 (R&D Systems), TL1A specific antibody”, the fold response, DR3 reporter, TL1A + 2.5 microg/ml MAb7441 (TL1A (R&D Systems) [4]) was 3.7 fold and the fold response, DR3 reporter, TL1A + 2.5 microg/ml MAb7441 (TL1A (R&D Systems) [5]) was 2.3 fold and 2 fold and 1.8 fold.
